Results taken from patent US20030235860A1, “Interactions between AR, ER, TR2, and TR4” (priority 1999, published 2003).
No end group written: not given here.

T1: ER homodimer (Homo sapiens, UniProt P03372)
T1 sequence (P03372 312-595): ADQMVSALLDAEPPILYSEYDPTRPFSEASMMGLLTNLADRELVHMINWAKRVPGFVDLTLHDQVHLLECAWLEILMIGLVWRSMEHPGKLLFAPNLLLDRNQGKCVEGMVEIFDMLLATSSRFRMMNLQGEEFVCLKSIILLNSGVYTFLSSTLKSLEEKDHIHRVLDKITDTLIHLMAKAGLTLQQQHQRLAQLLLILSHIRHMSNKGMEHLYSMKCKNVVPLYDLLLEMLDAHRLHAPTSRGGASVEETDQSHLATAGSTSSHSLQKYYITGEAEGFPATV

T2: AR (Homo sapiens, UniProt P10275, DEL79-80/DUP473-473)
T2 sequence (P10275 with tags, fused parts or gaps DEL79-80/DUP473-473): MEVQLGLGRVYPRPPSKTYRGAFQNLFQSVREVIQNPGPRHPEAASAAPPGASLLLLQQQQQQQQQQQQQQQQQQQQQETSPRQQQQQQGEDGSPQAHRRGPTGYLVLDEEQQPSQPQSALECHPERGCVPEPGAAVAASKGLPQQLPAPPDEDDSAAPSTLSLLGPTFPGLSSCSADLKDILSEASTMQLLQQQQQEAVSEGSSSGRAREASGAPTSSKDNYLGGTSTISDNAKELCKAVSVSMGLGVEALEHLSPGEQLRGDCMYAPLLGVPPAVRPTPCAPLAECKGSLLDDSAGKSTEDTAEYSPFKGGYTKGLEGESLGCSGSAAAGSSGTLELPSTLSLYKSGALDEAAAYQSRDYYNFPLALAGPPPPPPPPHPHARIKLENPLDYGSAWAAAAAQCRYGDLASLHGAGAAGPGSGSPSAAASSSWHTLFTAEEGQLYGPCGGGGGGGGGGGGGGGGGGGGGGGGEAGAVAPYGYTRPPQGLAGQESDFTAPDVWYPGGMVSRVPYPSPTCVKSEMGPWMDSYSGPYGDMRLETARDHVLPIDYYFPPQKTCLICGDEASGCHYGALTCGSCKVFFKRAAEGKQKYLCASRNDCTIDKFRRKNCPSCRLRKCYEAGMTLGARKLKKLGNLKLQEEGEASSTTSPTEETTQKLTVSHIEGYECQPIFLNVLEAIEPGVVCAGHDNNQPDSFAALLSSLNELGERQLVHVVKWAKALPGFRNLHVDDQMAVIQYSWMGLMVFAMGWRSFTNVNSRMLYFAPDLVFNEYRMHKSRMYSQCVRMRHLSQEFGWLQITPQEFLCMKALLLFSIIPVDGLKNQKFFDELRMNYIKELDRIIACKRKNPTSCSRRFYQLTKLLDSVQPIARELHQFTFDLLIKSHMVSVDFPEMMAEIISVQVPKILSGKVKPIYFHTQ


Assays:
ER homodimer = target: T1, ER homodimer; test: ER homodimer formation, competition GST pull-down (GST-ER-LBD with [35S]-ER); settings: for ER homodimer formation (GST-ER-LBD with [35S]-ER): Example 2, FIG. 16B
AR = target: T2, AR; test: AR-mediated transactivation reporter assay (MMTV / PSA reporters); assay type: cell-based; set-up: A full-length AR(pSG5AR) was co-transfected with GAL4-TR4E; expressed in transfected cells; host or cells: COS, H1299, CHO, DU145, PC-3; settings: for Transactivation by the AR receptor: similar procedures, no details given; for Activity AR (effect of regulator on transcription activity): Table 5
Source text: Cells were routinely maintained in DMEM with 10% heat-inactivated fetal bovine serum. The cells were transfected using a modified calcium phosphate precipitation method, Mizokami, & Chang, J: Biol. Chem. 269,25655-25659 (1994), or SuperFect (Qiagen). To normalize the transfection efficiency, the (3-galactosidase expression ver and pRL-TK were co-transfected in CAT assay and in Dual-luciferase reporter assay system (Promega), respectively.
Like TR4, AR itself acts as a transcription factor to activate many androgen target genes. 500 ng of MMTV-Luc (FIG. 4A), or PSA-Luc (FIG. 4B), were co-transfected with 40 ng pCMV-AR (lane 2-3) with increasing amounts of pCMX-TR4 (as indicated in FIG. 4). […] After 16-18 hours incubation, cells were harvested for Dual-rnciferase reporter assay. As expected, in COS, H1299, and CHO cells, AR activated MMTV luciferase activity in a DHT-dependent manner (FIG. 4A, lanes 2 and 3), which could then be repressed by the addition of TR4 (lanes 6 to 8). […] Similar suppression effects also occurred when the MMTV-ruciferase reporter was replaced with the PSA-Iuciferase reporter, another AR target gene (FIG. 4B).
As GR and PR can also induce MMTV—luciferase reporter, Beato, M., Ce//56, 335-344 (1989), determining if TR4 could also repress OR- or PR-mediated transactivation was analyzed. Three μg of MMTV-Luc was co-transfected with 4 μg of pCMX-TR4 in the presence of 1 μg of pSG5AR, pSG5GR, or pSG5PR by modified calcium-phosphate method. […] Dual-luciferase reporter assays were performed. PRL-TK was used to normalize the transfection efficiency. […] Similar results were observed when the same experiments of AR-mediated transactivation were repeated in DU145 cells.
Human prostate cancer PC-3 cells were maintained in DMEM containing penicillin (25 units/ml), streptomycin ([…]), and 5% FCS. Human prostate cancer LNCaP cells were maintained in RPMI 1640 containing penicillin (25 units/ml), streptomycin ([…]), and 10% FCS. PC-3 cell were transfected using the calcium phosphate precipitation method as described previously [Mu X. M. et al. (1998) Endocrine 9:27-32], and LNCaP cells were transfected by using Superfect™ according to the manufacturer's procedures (Qiagen, Chatsworth, Calif.). CAT assay was performed as described previously [Lee Y. et al. (1999) Proc Natl Acad Sci USA 96:14724-14729], and is herein incorporated by reference at least for material related to the CAT assays].

Molecule	ER homodimer formation (GST-ER-LBD with [35S]-ER) (ER homodimer)	Transactivation by the AR receptor (AR)	Activity AR (effect of regulator on transcription activity) (AR)	also measured
ER-#6: interaction blocker, ER fragment aa 312-340, as HA-tagged peptide, expression plasmid or cleaved peptide (ADQMVSALLDAEPPILYSEYDPTRPFSEA; also: HA tag (position not given here); UniProt P03372 312-340, looked up, fragment)	rescued			
RXR: retinoid X receptor, another member of the steroid receptor superfamily		suppress		
TR4: human testicular orphan nuclear receptor 4, SEQ ID NO:16; expressed from plasmid or in vitro translated (protein) MTSPSPRIQIISTDSAVASPQRIQGSEPASGPLSVFTSLNKEKIVTDQQTGQKIQIVTAVDASGSPKQQFILTSPDGAGTGKVILASPETSSAKQLIFTTSDNLVPGRIQIVTDSASVERLLGKTDVQRPQVVEYCVVCGDKASGRHYGAVSCEGCKGFFKRSVRKNLTYSCRSSQDCIINKHHRNRCQFCRLKKCLEMGMKMESVQSERKPFDVQREKPSNCAASTEKIYIRKDLRSPLIATPTFVADKDGARQTGLLDPGMLVNIQQPLIREDGTVLLATDSKAETSQGALGTLANVVTSLANLSESLNNGDTSEIQPEDQSASEITRAFDTLAKALNTTDSSSSPSLADGIDTSGGGSIHVISRDQSTPIIEVEGPLLSDTHVTFKLTMPSPMPEYLNVHYICESASRLLFLSMHRARSIPAFQGLGQDCNTSLVRACWNELFTLGLAQCAQVMSLSTILAAIVNHLQNSIQEDKLSGDRIKQVMEHIWKLQEFCNSMANWDIDGYEYAYLKAIVLFSPDHPGLTSTSQIEKFQEKAQMELQDYVQKTYSEDTYRLARILVRLPALRLMSSNITEELFFTGLIGNVSIDSIIPYILKMETAEYNGQITGVSL			Down	ER-ER homodimerization (GST-ER-LBD with [35S] ER) (ER homodimer; increasing amounts of TR4, Example 3): inhibit; AR-activated MMTV luciferase activity (similar with PSA-luciferase) (AR; COS, H1299 and CHO cells, 10 nM DHT, increasing pCMX-TR4): repressed; AR-mediated MMTV-luciferase transactivation (AR; H1299 cells (similar in DU145), 4 μg pCMX-TR4, 10 nM DHT): repress
TR2: human testicular orphan nuclear receptor 2, 603 amino acids (protein, UniProt P13056 1-603, looked up, full-length, human testicular orphan nuclear receptor 2, 603 amino acids) MATIEEIAHQIIEQQMGEIVTEQQTGQKIQIVTALDHNTQGKQFILTNHDGSTPSKVILARQDSTPGKVFLTTPDAAGVNQLFFTTPDLSAQHLQLLTDNSPDQGPNKVFDLCVVCGDKASGRHYGAVTCEGCKGFFKRSIRKNLVYSCRGSKDCIINKHHRNRCQYCRLQRCIAFGMKQDSVQCERKPIEVSREKSSNCAASTEKIYIRKDLRSPLTATPTFVTDSESTRSTGLLDSGMFMNIHPSGVKTESAVLMTSDKAESCQGDLSTLANVVTSLANLGKTKDLSQNSNEMSMIESLSNDDTSLCEFQEMQTNGDVSRAFDTLAKALNPGESTACQSSVAGMEGSVHLITGDSSINYTEKEGPLLSDSHVAFRLTMPSPMPEYLNVHYIGESASRLLFLSMHWALSIPSFQALGQENSISLVKAYWNELFTLGLAQCWQVMNVATILATFVNCLHNSLQQDKMSTERRKLLMEHIFKLQEFCNSMVKLCIDGYEYAYLKAIVLFSPDHPSLENMEQIEKFQEKAYVEFQDYITKTYPDDTYRLSRLLLRLPALRLMNATITEELFFKGLIGNIRIDSVIPHILKMEPADYNSQIIGHSI	interrupted	suppress	Down	MMTV-CAT and PSA-CAT activity (AR; PC-3 cells, 10 nM DHT, 2, 4 and 7 μg pCMV-TR2): strongly suppresses; AR-mediated transcription (MMTV-Luc) (AR; PC-3 cells, Example 2): suppress
